In PMC3632419:

B1: β-lactam synthetase (βLS) (Streptomyces clavuligerus) (protein)
chain: MGAPVLPAAFGFLASARTGGGRAPGPVFATRGSHTDIDTPQGERSLAATLVHAPSVAPDRAVARSLTGAPTTAVLAGEIYNRDELLSVLPAGPAPEGDAELVLRLLERYDLHAFRLVNGRFATVVRTGDRVLLATDHAGSVPLYTCVAPGEVRASTEAKALAAHRDPKGFPLADARRVAGLTGVYQVPAGAVMDIDLGSGTAVTHRTWTPGLSRRILPEGEAVAAVRAALEKAVAQRVTPGDTPLVVLSGGIDSSGVAACAHRAAGELDTVSMGTDTSNEFREARAVVDHLRTRHREITIPTTELLAQLPYAVWASESVDPDIIEYLLPLTALYRALDGPERRILTGYGADIPLGGMHREDRLPALDTVLAHDMATFDGLNEMSPVLSTLAGHWTTHPYWDREVLDLLVSLEAGLKRRHGRDKWVLRAAMADALPAETVNRPKLGVHEGSGTTSSFSRLLLDHGVAEDRVHEAKRQVVRELFDLTVGGGRHPSEVDTDDVVRSVADRTARGAA
B2: β-lactam synthetase (βLS) (Streptomyces clavuligerus; V446A) (protein)
chain: MGAPVLPAAFGFLASARTGGGRAPGPVFATRGSHTDIDTPQGERSLAATLVHAPSVAPDRAVARSLTGAPTTAVLAGEIYNRDELLSVLPAGPAPEGDAELVLRLLERYDLHAFRLVNGRFATVVRTGDRVLLATDHAGSVPLYTCVAPGEVRASTEAKALAAHRDPKGFPLADARRVAGLTGVYQVPAGAVMDIDLGSGTAVTHRTWTPGLSRRILPEGEAVAAVRAALEKAVAQRVTPGDTPLVVLSGGIDSSGVAACAHRAAGELDTVSMGTDTSNEFREARAVVDHLRTRHREITIPTTELLAQLPYAVWASESVDPDIIEYLLPLTALYRALDGPERRILTGYGADIPLGGMHREDRLPALDTVLAHDMATFDGLNEMSPVLSTLAGHWTTHPYWDREVLDLLVSLEAGLKRRHGRDKWVLRAAMADALPAETVNRPKLGAHEGSGTTSSFSRLLLDHGVAEDRVHEAKRQVVRELFDLTVGGGRHPSEVDTDDVVRSVADRTARGAA
B3: β-lactam synthetase (βLS) (Streptomyces clavuligerus; V446G) (protein)
chain: MGAPVLPAAFGFLASARTGGGRAPGPVFATRGSHTDIDTPQGERSLAATLVHAPSVAPDRAVARSLTGAPTTAVLAGEIYNRDELLSVLPAGPAPEGDAELVLRLLERYDLHAFRLVNGRFATVVRTGDRVLLATDHAGSVPLYTCVAPGEVRASTEAKALAAHRDPKGFPLADARRVAGLTGVYQVPAGAVMDIDLGSGTAVTHRTWTPGLSRRILPEGEAVAAVRAALEKAVAQRVTPGDTPLVVLSGGIDSSGVAACAHRAAGELDTVSMGTDTSNEFREARAVVDHLRTRHREITIPTTELLAQLPYAVWASESVDPDIIEYLLPLTALYRALDGPERRILTGYGADIPLGGMHREDRLPALDTVLAHDMATFDGLNEMSPVLSTLAGHWTTHPYWDREVLDLLVSLEAGLKRRHGRDKWVLRAAMADALPAETVNRPKLGGHEGSGTTSSFSRLLLDHGVAEDRVHEAKRQVVRELFDLTVGGGRHPSEVDTDDVVRSVADRTARGAA
B4: β-lactam synthetase (βLS) (Streptomyces clavuligerus; H447A) (protein)
chain: MGAPVLPAAFGFLASARTGGGRAPGPVFATRGSHTDIDTPQGERSLAATLVHAPSVAPDRAVARSLTGAPTTAVLAGEIYNRDELLSVLPAGPAPEGDAELVLRLLERYDLHAFRLVNGRFATVVRTGDRVLLATDHAGSVPLYTCVAPGEVRASTEAKALAAHRDPKGFPLADARRVAGLTGVYQVPAGAVMDIDLGSGTAVTHRTWTPGLSRRILPEGEAVAAVRAALEKAVAQRVTPGDTPLVVLSGGIDSSGVAACAHRAAGELDTVSMGTDTSNEFREARAVVDHLRTRHREITIPTTELLAQLPYAVWASESVDPDIIEYLLPLTALYRALDGPERRILTGYGADIPLGGMHREDRLPALDTVLAHDMATFDGLNEMSPVLSTLAGHWTTHPYWDREVLDLLVSLEAGLKRRHGRDKWVLRAAMADALPAETVNRPKLGVAEGSGTTSSFSRLLLDHGVAEDRVHEAKRQVVRELFDLTVGGGRHPSEVDTDDVVRSVADRTARGAA

Legend:
Assay in all cases: coupled-enzyme assay of AMP release
Format in all cases: biochemical, Streptomyces clavuligerus
Settings in all cases: ATP as co-substrate
[1] = substrate: C[C@H](CN[C@@H](CCCNC(=N)N)C(=O)O)C(=O)O
[2] = substrate: C[C@@H](CN[C@@H](CCCNC(=N)N)C(=O)O)C(=O)O
[3] = substrate: N=C(N)NCCC[C@H](NCCC(=O)O)C(=O)O

Row | Protein | Km [1] [µM] | kcat [1] [s⁻¹] | Km [2] [µM] | kcat [2] [s⁻¹] | Km [3] [µM] | kcat [3] [s⁻¹]
1 | B1 | 40 ± 10 | 0.032 ± 0.002 | 60 ± 10 | 0.023 ± 0.001 | 37 ± 1 | 0.87 ± 0.01
2 | B2 | 330 ± 20 | 0.014 ± 0.001 | 460 ± 40 | 0.34 ± 0.02 | 360 ± 20 | 0.28 ± 0.01
3 | B3 | 1900 ± 700 | 0.07 ± 0.002 | 1200 ± 100 | 0.13 ± 0.01 | 610 ± 60 | 0.13 ± 0.01
4 | B4 | – | – | 80 ± 60 | 0.013 ± 0.001 | – | –
